Reference: US20250296971A1, “GASTRIC INHIBITORY PEPTIDE RECEPTOR LIGANDS” (priority 2021, published 2025)
*1 amine or outer side, *2 acyl side, *3 side chain or, on linkers, in order; H or OH if unused. Bridges are numbered along the chain shown (N, C = ends). Primed or numbered codes have the meaning given here. [ ]: non-standard residue; d: D form. The star is where a group is joined. 3‑methylbenzoyl = 3-methylbenzoyl group bridging Dap and AET, O=C(c1cccc(C[*:3])c1)[*:2]; Ttds = 1,13-diamino-4,7,10-trioxatridecan-succinamic acid, NCCCOCCOCCOCCCNC(=O)CCC(=O)*; dE(AGLU) = D-glutamic acid bearing 1-amino-1-deoxy-D-glucitol; Pro(trans-4-NH2) = O=C([C@@H]1C[C@@H](N[*:3])CN1[*:1])[*:2]; DO3AM = NC(=O)CN1CCN(CC(N)=O)CCN(CC(=O)*)CCN(CC(N)=O)CC1; DOTA = O=C(O)CN1CCN(CC(=O)O)CCN(CC(=O)*)CCN(CC(=O)O)CC1; Trp(5-Cl) = N[C@@H](Cc1c[nH]c2ccc(Cl)cc12)C(=O)O; Pyridine(2,6-diCH2) = c1cc(C[*:1])nc(C[*:2])c1; Trp(7-F) = N[C@@H](Cc1c[nH]c2c(F)cccc12)C(=O)O; 2Lut″ = 2,6-lutidylidene linking two thiols; APAc = 4-amino-1-carboxymethylpiperidine; Glutaryl = O=C(CCCC(=O)[*:2])[*:1]; AGLU = 1-amino-1-deoxy-D-glucitol; mli = maleimide bridging scaffold; Hyp = O=C(O)[C@@H]1C[C@@H](O)CN1; Cysteamide = C(CS[*:3])N[*:1]; Tle = CC(C)(C)[C@H](N)C(=O)O; hCys = N[C@@H](CCS)C(=O)O; Api = NC1(C(=O)O)CCNCC1; Thp = NC1(C(=O)O)CCOCC1; Dap = NC[C@H](N)C(=O)O; Aib = CC(C)(N)C(=O)O

Target: human Gastric Inhibitory Peptide Receptor (GIPR) (human) (UniProt P48546)
Assay: FACS competition vs biotinylated GIP-057 on CHO-K1-hGIPR cells; category A: pIC50 >8.0

human Gastric Inhibitory Peptide Receptor (GIPR) (human), sequence (P48546 22-466 limits assumed): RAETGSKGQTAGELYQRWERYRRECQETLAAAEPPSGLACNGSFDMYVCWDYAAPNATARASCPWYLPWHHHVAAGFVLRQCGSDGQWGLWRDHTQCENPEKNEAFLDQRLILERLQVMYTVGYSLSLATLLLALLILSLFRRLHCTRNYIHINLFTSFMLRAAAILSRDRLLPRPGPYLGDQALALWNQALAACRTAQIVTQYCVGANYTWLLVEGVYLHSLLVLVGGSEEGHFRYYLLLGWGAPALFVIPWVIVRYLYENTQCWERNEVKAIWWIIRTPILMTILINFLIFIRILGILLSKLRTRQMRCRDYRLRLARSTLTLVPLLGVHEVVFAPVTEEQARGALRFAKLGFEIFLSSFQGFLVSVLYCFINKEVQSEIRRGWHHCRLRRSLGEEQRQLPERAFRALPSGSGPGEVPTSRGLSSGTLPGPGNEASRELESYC

In the case of Ac-DW[Trp(5-Cl)][Hyp]E[dL]C[Thp]LIC-NH2 (linker 7-11 via mli) [Ac-Asp-Trp-5Clw-Hyp-Glu-leu-[Cys(mli)-Thp-Leu-Ile-Cys]-NH2], the pIC50 is reported as > 8 pic50.

B1: Ac-Asp-Trp-5Clw-Hyp-Glu-leu-[Cys(2Lut)-Thp-Glu-Ile-Cys]-NH2 (peptide)
peptide: Ac-DW[Trp(5-Cl)][Hyp]E[dL]C[Thp]EIC-NH2
modifications: linker 7-11 via Pyridine(2,6-diCH2)
SMILES: CC[C@H](C)[C@@H]1NC(=O)[C@H](CCC(=O)O)NC(=O)C2(CCOCC2)NC(=O)[C@@H](NC(=O)[C@@H](CC(C)C)NC(=O)[C@H](CCC(=O)O)NC(=O)[C@@H]2C[C@@H](O)CN2C(=O)[C@H](Cc2c[nH]c3ccc(Cl)cc23)NC(=O)[C@H](Cc2c[nH]c3ccccc23)NC(=O)[C@H](CC(=O)O)NC(C)=O)CSCc2cccc(n2)CSC[C@@H](C(N)=O)NC1=O
B1 was tested, and the pIC50 was > 8 pic50.

B2: Ac-Asp-Trp-5Clw-Hyp-Glu-leu-[Cys(2Lut)-Thp-Leu-Tle-Cys]-NH2 (peptide)
peptide: Ac-DW[Trp(5-Cl)][Hyp]E[dL]C[Thp]L[Tle]C-NH2
modifications: linker 7-11 via Pyridine(2,6-diCH2)
SMILES: CC(=O)N[C@@H](CC(=O)O)C(=O)N[C@@H](Cc1c[nH]c2ccccc12)C(=O)N[C@@H](Cc1c[nH]c2ccc(Cl)cc12)C(=O)N1C[C@H](O)C[C@H]1C(=O)N[C@@H](CCC(=O)O)C(=O)N[C@H](CC(C)C)C(=O)N[C@H]1CSCc2cccc(n2)CSC[C@@H](C(N)=O)NC(=O)[C@H](C(C)(C)C)NC(=O)[C@H](CC(C)C)NC(=O)C2(CCOCC2)NC1=O
For B2, the pIC50 was > 8 pic50.

B3: Ac-Asp-Trp-5Clw-Hyp-Glu-leu-[Cys(2Lut)-Thp-Trp-Ile-Cys]-NH2 (peptide)
peptide: Ac-DW[Trp(5-Cl)][Hyp]E[dL]C[Thp]WIC-NH2
modifications: linker 7-11 via Pyridine(2,6-diCH2)
SMILES: CC[C@H](C)[C@@H]1NC(=O)[C@H](Cc2c[nH]c3ccccc23)NC(=O)C2(CCOCC2)NC(=O)[C@@H](NC(=O)[C@@H](CC(C)C)NC(=O)[C@H](CCC(=O)O)NC(=O)[C@@H]2C[C@@H](O)CN2C(=O)[C@H](Cc2c[nH]c3ccc(Cl)cc23)NC(=O)[C@H](Cc2c[nH]c3ccccc23)NC(=O)[C@H](CC(=O)O)NC(C)=O)CSCc2cccc(n2)CSC[C@@H](C(N)=O)NC1=O
With B3 the pIC50 was > 8 pic50.

In the case of Ac-DW[Trp(7-F)][Hyp]E[dL]C[Thp]LIC-NH2 (linker 7-11 via 2Lut″) [Ac-Asp-Trp-7Fw-Hyp-Glu-leu-[Cys(2Lut)-Thp-Leu-Ile-Cys]-NH2], the pIC50 is reported as > 8 pic50.

Ac-DF[Trp(5-Cl)][Hyp]E[dL]C[Thp]LIC-NH2 (linker 7-11 via Pyridine(2,6-diCH2)) [Ac-Asp-Phe-5Clw-Hyp-Glu-leu-[Cys(2Lut)-Thp-Leu-Ile-Cys]-NH2] was tested, and the pIC50 was > 8 pic50.

B4: Ac-Asp-Trp-5Clw-Hyp-Glu-leu-[Cys(2Lut)-Thp-Phe-Ile-Cys]-NH2 (peptide)
peptide: Ac-DW[Trp(5-Cl)][Hyp]E[dL]C[Thp]FIC-NH2
modifications: linker 7-11 via Pyridine(2,6-diCH2)
SMILES: CC[C@H](C)[C@@H]1NC(=O)[C@H](Cc2ccccc2)NC(=O)C2(CCOCC2)NC(=O)[C@@H](NC(=O)[C@@H](CC(C)C)NC(=O)[C@H](CCC(=O)O)NC(=O)[C@@H]2C[C@@H](O)CN2C(=O)[C@H](Cc2c[nH]c3ccc(Cl)cc23)NC(=O)[C@H](Cc2c[nH]c3ccccc23)NC(=O)[C@H](CC(=O)O)NC(C)=O)CSCc2cccc(n2)CSC[C@@H](C(N)=O)NC1=O
In the case of B4, the pIC50 is reported as > 8 pic50.

B5: Ac-Asp-Trp-5Clw-Hyp-Glu-leu-[Cys(2Lut)-Thp-Leu-Leu-Cys]-NH2 (peptide)
peptide: Ac-DW[Trp(5-Cl)][Hyp]E[dL]C[Thp]LLC-NH2
modifications: linker 7-11 via Pyridine(2,6-diCH2)
SMILES: CC(=O)N[C@@H](CC(=O)O)C(=O)N[C@@H](Cc1c[nH]c2ccccc12)C(=O)N[C@@H](Cc1c[nH]c2ccc(Cl)cc12)C(=O)N1C[C@H](O)C[C@H]1C(=O)N[C@@H](CCC(=O)O)C(=O)N[C@H](CC(C)C)C(=O)N[C@H]1CSCc2cccc(n2)CSC[C@@H](C(N)=O)NC(=O)[C@H](CC(C)C)NC(=O)[C@H](CC(C)C)NC(=O)C2(CCOCC2)NC1=O
In the case of B5, the pIC50 is reported as > 8 pic50.

B6: Ac-Asp-Trp-5Clw-Hyp-Glu-leu-[Cys(2Lut)-Thp-Ile-Ile-Cys]-NH2 (peptide)
peptide: Ac-DW[Trp(5-Cl)][Hyp]E[dL]C[Thp]IIC-NH2
modifications: linker 7-11 via Pyridine(2,6-diCH2)
SMILES: CC[C@H](C)[C@@H]1NC(=O)[C@H]([C@@H](C)CC)NC(=O)C2(CCOCC2)NC(=O)[C@@H](NC(=O)[C@@H](CC(C)C)NC(=O)[C@H](CCC(=O)O)NC(=O)[C@@H]2C[C@@H](O)CN2C(=O)[C@H](Cc2c[nH]c3ccc(Cl)cc23)NC(=O)[C@H](Cc2c[nH]c3ccccc23)NC(=O)[C@H](CC(=O)O)NC(C)=O)CSCc2cccc(n2)CSC[C@@H](C(N)=O)NC1=O
For B6, the pIC50 was > 8 pic50.

Ac-DW[Trp(5-Cl)][Hyp][dE]LC[Thp]LIC-NH2 (linker 7-11 via Pyridine(2,6-diCH2)) [Ac-Asp-Trp-5Clw-Hyp-glu-Leu-[Cys(2Lut)-Thp-Leu-Ile-Cys]-NH2] was tested, and the pIC50 was > 8 pic50.

In the case of {AGLU-Glutaryl}-DW[Trp(5-Cl)][Pro(trans-4-NH2)]E[dL]C[Api](DO3AM)LIC-{APAc-dE(AGLU)-NH2} (linker 7-11 via Pyridine(2,6-diCH2)) [AGLU-Glutar-Asp-Trp-5Clw-Tap-Glu-leu-[Cys(2Lut)-Apc(DOTAM)-Leu-Ile-Cys]-APAc-glu(AGLU)-NH2], the pIC50 is reported as > 8 pic50.

B7: Ac-Asp-Trp-5Clw-Hyp-Glu-leu-[Cys(2Lut)-Thp-Ser-Ile-Cys]-NH2 (peptide)
peptide: Ac-DW[Trp(5-Cl)][Hyp]E[dL]C[Thp]SIC-NH2
modifications: linker 7-11 via Pyridine(2,6-diCH2)
SMILES: CC[C@H](C)[C@@H]1NC(=O)[C@H](CO)NC(=O)C2(CCOCC2)NC(=O)[C@@H](NC(=O)[C@@H](CC(C)C)NC(=O)[C@H](CCC(=O)O)NC(=O)[C@@H]2C[C@@H](O)CN2C(=O)[C@H](Cc2c[nH]c3ccc(Cl)cc23)NC(=O)[C@H](Cc2c[nH]c3ccccc23)NC(=O)[C@H](CC(=O)O)NC(C)=O)CSCc2cccc(n2)CSC[C@@H](C(N)=O)NC1=O
For B7, the pIC50 was > 8 pic50.

Ac-D[Phe(2,3-Cl2)][Trp(5-Cl)][Hyp]E[dL]C[Thp]LIC-NH2 (linker 7-11 via Pyridine(2,6-diCH2)) [Ac-Asp-Egp-5Clw-Hyp-Glu-leu-[Cys(2Lut)-Thp-Leu-Ile-Cys]-NH2] was tested, and the pIC50 was > 8 pic50.

In the case of Ac-DW[Trp(5-Cl)][Hyp]E[dL]C[Thp]LI[hCys]-NH2 (linker 7-11 via mli) [Ac-Asp-Trp-5Clw-Hyp-Glu-leu-[Cys(mli)-Thp-Leu-Ile-Hcy]-NH2], the pIC50 is reported as > 8 pic50.

B8: Ac-Asp-Trp-5Clw-Hyp-Glu-leu-[Cys(2Lut)-Thp-Arg-Ile-Cys]-NH2 (peptide)
peptide: Ac-DW[Trp(5-Cl)][Hyp]E[dL]C[Thp]RIC-NH2
modifications: linker 7-11 via Pyridine(2,6-diCH2)
SMILES: CC[C@H](C)[C@@H]1NC(=O)[C@H](CCCNC(=N)N)NC(=O)C2(CCOCC2)NC(=O)[C@@H](NC(=O)[C@@H](CC(C)C)NC(=O)[C@H](CCC(=O)O)NC(=O)[C@@H]2C[C@@H](O)CN2C(=O)[C@H](Cc2c[nH]c3ccc(Cl)cc23)NC(=O)[C@H](Cc2c[nH]c3ccccc23)NC(=O)[C@H](CC(=O)O)NC(C)=O)CSCc2cccc(n2)CSC[C@@H](C(N)=O)NC1=O
For B8, the pIC50 was > 8 pic50.

With Ac-DW[Trp(5-Cl)][Pro(trans-4-NH2)]E[dL]C[Thp]LIC-NH2 (linker 7-11 via 2Lut″) [Ac-Asp-Trp-5Clw-Tap-Glu-leu-[Cys(2Lut)-Thp-Leu-Ile-Cys]-NH2] the pIC50 was > 8 pic50.

B9: DOTA-Ttds-Asp-Trp-5Clw-Pro-Glu-leu-[Dap(3MeBz)-Aib-Leu-Ile-AET] (peptide)
peptide: {DOTA-Ttds}-DW[Trp(5-Cl)]PE[dL][Dap][Aib]LI[Cysteamide]
modifications: linker (positions not given here) via 3‑methylbenzoyl; not fully specified (bridges); printed as DOTA-Ttds-Asp-Trp-5Clw-Pro-Glu-leu-[Dap(3MeBz)-Aib-Leu-Ile-AET]
B9 was tested, and the pIC50 was > 8 pic50.
